Test results as given in PMC10591882 (Cell reports, 2023).

Biological target: T1, TBEV envelope protein domain III (EDIII) (Tick-borne encephalitis virus, Western …)
T1 chain: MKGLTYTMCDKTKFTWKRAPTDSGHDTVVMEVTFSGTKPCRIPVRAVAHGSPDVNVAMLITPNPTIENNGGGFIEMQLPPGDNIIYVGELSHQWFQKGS
Assay: cell-based or functional assay

B1: human monoclonal antibody T025 (antibody, V domains shown)
VH: QVQLVESGGGVVQPGRSLRLSCAASGFTFSNYGMHWVRQAPGKGLDWVAVISYDAISKSYADSVEGRFTISRDNSKNTLYLQMNSLRAEDSAVYYCAKSPTAIDPPFDYWGQGTLVTVSS
VL: EIVMTQSPATLSVSPGERATLSCWASQSVSSNLAWYQQKPGQAPRLLIYGASTRATGIPARFSASGSGTEFTLTISSLQSEDFAVYYCQQYNNWPPRFGQGTKVEIK
  IC50 of neutralisation of TBEV-Hypr (virus neutralization test on PS cells): 0.0293 µg/mL
